Measurements taken from patent publication US20250282874A1.

Biological target: human PD-L1 expressed on cells (human) (UniProt Q9NZQ7)
Assay: flow cytometry on 293T-PD-L1-CD3L cells, PE anti-human IgG, Mean PE-A; fit of a nearly flat control curve

Question: For Isotype control (antibody), which EC50 is on record?
Answer: 0.0292 µM
